Patent US20220017608A1 (Teva, published 2022)
Where a chain is given by its changes, count along the chain named. Each block holds one binder with its values, some of them ahead of it. Where no end group is shown, it is not given here. The star is where a group is joined. Biotin = O=C1N[C@H]2[C@H](CS[C@H]2CCCCC(=O)*)N1

Legend:
[1] = target: T1, rat β-CGRP (rat, not fully specified; C-terminal amide (CONH2); N-biotinylated when captured on the Biacore chip); assay: Biacore, N-biotin-CGRP on chip, 37 C
T1 construct: also called β-rat
T1 peptide: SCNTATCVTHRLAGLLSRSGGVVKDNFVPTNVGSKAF

[2] = target: T2, rat α-CGRP (rat, not fully specified; C-terminal amide (CONH2); N-biotinylated when captured on the Biacore chip); assay: Biacore, N-biotin-CGRP on chip, 37 C
T2 construct: also called α-Rat; α-rat
T2 peptide: T1 peptide with K35E

[3] = target: T3, human α-CGRP (human, C-terminal amide (CONH2); N-biotinylated when captured on the Biacore chip); assay: Biacore, N-biotin-CGRP on chip, 37 C
T3 construct: N-biotinylated in the Biacore assays; also called α-Hu; α-human
T3 peptide: T1 peptide with S1A, N3D, D25N

[4] = target: T4, human β-CGRP (human, not fully specified; C-terminal amide (CONH2); N-biotinylated when captured on the Biacore chip); assay: Biacore, N-biotin-CGRP on chip, 37 C
T4 construct: also called β-human
T4 peptide: T1 peptide with S1A, V22M, D25S

[5] = target: T5, cynomolgus monkey α-CGRP (cynomolgus monkey); assay: Biacore
T5 construct: also called cyno CGRP

[6] = target: T3, human α-CGRP; assay: competition binding assay on SK-N-MC cells: antibody blocks binding of human α-CGRP to the CGRP1 receptor
[7] = target: T3, human α-CGRP; assay: competition binding assay on SK-N-MC cells: antibody blocks binding of human α-CGRP to the CGRP1 receptor; value in IgG molecules
[8] = target: T3, human α-CGRP; assay: Biacore, ratio of KD against rat α-CGRP
[9] = target: T3, human α-CGRP; assay: blocking of human α-CGRP binding to the CGRP1-receptor in SK-N-MC cells; IC50 converted to binding sites
[10] = target: T6, adrenomedullin (Homo sapiens (Human), UniProt P35318 95-146, Natural adrenomedullin has a C-terminal Tyr amide and a Cys16-Cys21 disulfide. The patent passages shown say nothing on this.); assay: Biacore solution competition, chip probes free G1
T6 sequence (peptide): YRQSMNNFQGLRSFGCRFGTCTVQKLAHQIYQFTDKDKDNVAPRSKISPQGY

[11] = target: T7, calcitonin (Homo sapiens (Human), UniProt P01258 85-116, not fully specified; Natural calcitonin has a C-terminal Pro amide and a Cys1-Cys7 disulfide. The patent passages shown say nothing on this.); assay: Biacore solution competition, chip probes free G1
T7 peptide: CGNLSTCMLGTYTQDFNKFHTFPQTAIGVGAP

[12] = target: T8, amylin (Homo sapiens (Human), UniProt P10997 34-70, not fully specified; Natural amylin has a C-terminal Tyr amide and a Cys2-Cys7 disulfide. The patent passages shown say nothing on this.); assay: Biacore solution competition, chip probes free G1
T8 peptide: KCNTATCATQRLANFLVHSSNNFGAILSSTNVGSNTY

[13] = target: T2, rat α-CGRP; assay: Biacore, N-biotin-CGRP on chip, 25 C
[14] = target: T3, human α-CGRP; assay: Biacore, N-biotin-CGRP on chip, 25 C
[15] = target: T3, human α-CGRP; assay: competition binding assay on SK-N-MC cells: antibody blocks binding of human α-CGRP to the CGRP1 receptor; value in binding sites
[16] = target: T2, rat α-CGRP; assay: Biacore, N-biotinylated CGRP captured on chip, 25 C
[17] = target: T3, human α-CGRP; assay: as above
[18] = target: T1, rat β-CGRP; assay: Biacore (legend of Table 1)
[19] = target: T9, V32A (ends and bridges not checked); assay: Biacore 3000, 25 °C, alanine scan: N-biotinylated peptide on SA chip, G1 Fab titrated; fold loss versus wild-type 25-37 fragment
T9 construct: also called HuαCGRP fragment 25-37 V32A
T9 peptide: Biotin-NNFVPTNAGSKAF
Description: (§1) Interaction analysis was conducted at 25° C. on a Biacore 3000™ system equipped with streptavidin-coated (SA) sensor chips (Biacore AB, Uppsala, Sweden) using a standard Biacore running buffer (HBS-P). […] Each amino acid between position 27-37 was then mutated individually to alanine and expressed the fold loss in affinity compared to the wild-type fragment. […] Fab fragments were titrated over the chip using 1 μM as the top concentration of a two-fold dilution series. Association and dissociation phases were monitored at 100 μl/min for 1 minute and 5 minutes respectively. Surfaces were regenerated with a mixture of 35% ethanol+25 mM NaOH+0.5M NaCl.

[20] = target: T10, N31A (ends and bridges not checked); assay: as above
T10 construct: also called HuαCGRP fragment 25-37 N31A
T10 peptide: Biotin-NNFVPTAVGSKAF
Description: as §1

[21] = target: T11, T30A (ends and bridges not checked); assay: as above
T11 construct: also called HuαCGRP fragment 25-37 T30A
T11 peptide: Biotin-NNFVPANVGSKAF
Description: as §1

[22] = target: T12, V28A (ends and bridges not checked); assay: as above
T12 construct: also called HuαCGRP fragment 25-37 V28A
T12 peptide: Biotin-NNFAPTNVGSKAF
Description: as §1

[23] = target: T13, F27A (ends and bridges not checked); assay: as above
T13 construct: also called HuαCGRP fragment 25-37 F27A
T13 peptide: Biotin-NNAVPTNVGSKAF
Description: as §1

[24] = target: T14, P29A (ends and bridges not checked); assay: as above
T14 construct: also called HuαCGRP fragment 25-37 P29A
T14 peptide: Biotin-NNFVATNVGSKAF
Description: as §1

[25] = target: T15, K35A (ends and bridges not checked); assay: as above
T15 construct: also called HuαCGRP fragment 25-37 K35A
T15 peptide: Biotin-NNFVPTNVGSAAF
Description: as §1

[26] = target: T1, rat β-CGRP; assay: Biacore (legend of Table 1), rat β-CGRP

Kd [1]: 152 pM | T1/2 [1]: 2.45 h | koff [1]: 7.85e-05 s⁻¹ | kon [1]: 516000 M⁻¹ s⁻¹ | Kd [2]: 2570 pM | T1/2 [2]: 0.48 h | koff [2]: 0.000399 s⁻¹ | kon [2]: 155000 M⁻¹ s⁻¹ | Kd [3]: 63 pM | T1/2 [3]: 5.3 h | koff [3]: 3.63e-05 s⁻¹ | kon [3]: 587000 M⁻¹ s⁻¹ | Kd [4]: 155 pM | T1/2 [4]: 2.76 h | koff [4]: 6.98e-05 s⁻¹ | kon [4]: 451000 M⁻¹ s⁻¹ | Kd [5]: 63 pM | IC50 (read off the curve) [6]: ~0.1 µg/mL | Ki [7]: 370 pM | fold more potent affinity than for rat α-CGRP [8]: 40 fold | IC50 [9]: 1200 pM | binding result [10]: no binding (tested: an excess) | binding result [11]: no binding (tested: an excess) | binding result [12]: no binding (tested: an excess) | Kd [13]: 1220 pM | T1/2 [13]: 3.12 h | koff [13]: 6.18e-05 s⁻¹ | kon [13]: 50800 M⁻¹ s⁻¹ | Kd [14]: 42 pM | T1/2 [14]: 24.7 h | koff [14]: 7.8e-06 s⁻¹ | kon [14]: 186000 M⁻¹ s⁻¹ | IC50 [15]: 1800 pM | Ki [15]: 740 pM | Kd [16]: 1200 pM | Kd [17]: 40 pM | Kd [18]: 100 pM
B1: antibody G1 (antibody, human IgG2, kappa, V domains shown)
VH: EVQLVESGGGLVQPGGSLRLSCAASGFTFSNYWISWVRQAPGKGLEWVAEIRSESDASATHYAEAVKGRFTISRDNAKNSLYLQMNSLRAEDTAVYYCLAYFDYGLAIQNYWGQGTLVTVSS
VL: EIVLTQSPATLSLSPGERATLSCKASKRVTTYVSWYQQKPGQAPRLLIYGASNRYLGIPARFSGSGSGTDFTLTISSLEPEDFAVYYCSQSYNYPYTFGQGTKLEIKR
notes: Humanized IgG2 delta-a antibody derived from muMAb7E9; also called anti-CGRP antibody G1

Fold loss in affinity [19]: 6.1 fold | Fold loss in affinity [20]: 1.9 fold | Fold loss in affinity [21]: 1.7 fold | Fold loss in affinity [22]: 1 fold | Fold loss in affinity [23]: 1.4 fold | Fold loss in affinity [24]: 2.8 fold | Fold loss in affinity [25]: 8.1 fold
B2: Fab fragments of antibody G1 (Fab, V domains shown)
VH: B1 VH
VL: EIVLTQSPATLSLSPGERATLSCKASKRVTTYVSWYQQKPGQAPRLLIYGASNRYLGIPARFSGSGSGTDFTLTISSLEPEDFAVYYCSQSYNYPYTFGQGTKLEIK
notes: 'Purified Fab fragments of antibody G1 were generated'; also called G1 Fab

IC50 [9]: 37000 pM | Kd [16]: 1000 pM | Kd [17]: 17000 pM | Kd [26]: 17000 pM
B3: antibody G2 (antibody, V domains shown)
VH: EVQLQQSGPELVKPGASVKMSCKASGYTFTSSVMHWVKQKPGQGLEWIGYINPYNDGTKYNEKFKGKATLTSDKSSSTAYMELSSLTSEDSAVYYCAKGGNDGYWGQGTTLTVSS
VL: EIVLTQSPTTMAASPGEKITITCSASSSISSIYLHWYQQKPGFSPKVLIYRASNLASGVPARFSGSGSGTSYSLTIGTMEAEDVATYYCQQGSTIPFTFGSGTKLEIKR
notes: Anti-rat CGRP mouse monoclonal antibody (Wong et al. 1993); also called RN4901
